Tests used:
[1] = target: SARS-CoV-2 spike S1 subunit (SARS-CoV-2, UniProt P0DTC2 16-685)
[2] = target: SARS-CoV-2 spike RBD-Fc fusion (SARS-CoV-2, UniProt P0DTC2 319-541); experiment: ELISA on aptamer-coated gold slide

B1: CoV-2-RBD-4C aptamer (Aptamer-4C) (structured_DNA)
DNA: ATCCAGAGTGACGCAGCATTTCATCGGGTCCAAAAGGGGCTGCTCGGGATTGCGGATATGGACACGT
modifications: 5'-thiol, immobilized on gold
[1]
  binding result: binds
[2]
  binding result: binds
